Experimental data: patent US20080267976A1 (published 2008)

Target: extracellular region of human V158 FcγRIIIa fused with glutathione S-Transferase (GST) (human;, UniProt P08637 17-208)
Test: competition AlphaScreen

Sequence of extracellular region of human V158 FcγRIIIa fused with glutathione S-Transferase (GST) (P08637 17-208 F176V): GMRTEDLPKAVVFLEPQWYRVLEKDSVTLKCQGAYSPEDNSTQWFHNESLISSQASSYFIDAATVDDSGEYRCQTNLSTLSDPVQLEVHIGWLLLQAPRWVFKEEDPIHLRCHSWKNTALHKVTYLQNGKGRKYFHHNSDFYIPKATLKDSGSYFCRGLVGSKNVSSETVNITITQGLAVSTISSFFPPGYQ

B1: H3.69_V2/L3.71 AC10 IgG(1/2) ELLGG antibody (XmAb2513) (antibody)
heavy: QVQLVQSGAEVKKPGASVKVSCKVSGYTFTDYYITWVRQAPGQALEWMGWIYPGSGNTKYSQKFQGRFVFSVDTSASTAYLQISSLKAEDTAVYYCANYGNYWFAYWGQGTLVTVSSASTKGPSVFPLAPSSKSTSGGTAALGCLVKDYFPEPVTVSWNSGALTSGVHTFPAVLQSSGLYSLSSVVTVPSSSLGTQTYICNVNHKPSNTKVDKKVEPKSCDKTHTCPPCPAPELLGGPDVFLFPPKPKDTLMISRTPEVTCVVVDVSHEDPEVQFNWYVDGVEVHNAKTKPREEQFNSTFRVVSVLTVVHQDWLNGKEYKCKVSNKALPAPEEKTISKTKGQPREPQVYTLPPSREEMTKNQVSLTCLVKGFYPSDIAVEWESNGQPENNYKTTPPMLDSDGSFFLYSKLTVDKSRWQQGNVFSCSVMHEALHNHYTQKSLSLSPGK
light: EIVLTQSPDSLAVSLGERATINCKASQSVDFDGDSYLNWYQQKPGQPPKVLIYAASTLQSGVPSRFSGSGSGTDFTLTINSLEAEDAATYYCQQSNEDPWTFGGGTKVEIKRTVAAPSVFIFPPSDEQLKSGTASVVCLLNNFYPREAKVQWKVDNALQSGNSQESVTEQDSKDSTYSLSSTLTLSKADYEKHKVYACEVTHQGLSSPVTKSFNRGEC
IC50: 38 nM
